Publication PMC5847621 (Nature Communications, 2018)

Molecular target: T1, VSV Gth, soluble form of the ectodomain of VSV glycoprotein G (residues 1-422) (Vesicular stomatitis virus (Mudd-Summer …, UniProt P0C2X0 17-438))
T1 sequence: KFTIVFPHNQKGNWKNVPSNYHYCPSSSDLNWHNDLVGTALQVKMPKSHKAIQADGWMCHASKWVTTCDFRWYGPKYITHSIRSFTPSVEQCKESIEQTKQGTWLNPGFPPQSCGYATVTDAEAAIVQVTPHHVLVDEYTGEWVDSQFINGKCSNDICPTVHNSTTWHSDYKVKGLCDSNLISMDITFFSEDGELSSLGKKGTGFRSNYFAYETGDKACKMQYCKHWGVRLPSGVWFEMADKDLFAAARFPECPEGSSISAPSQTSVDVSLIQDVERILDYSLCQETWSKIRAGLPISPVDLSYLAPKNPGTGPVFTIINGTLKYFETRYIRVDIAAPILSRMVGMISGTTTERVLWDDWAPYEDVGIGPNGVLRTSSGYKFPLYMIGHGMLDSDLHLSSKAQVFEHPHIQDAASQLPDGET
Assay: ITC
Settings: both partners purified

B1: LDL-R CR3 domain, isolated (GST cleaved off) (domain or fragment)
chain: not shown
notes: also called CR3 monovalent domain; not shown: GST, N-terminal, cleaved
- Kd: 4.3 µM
- stoichiometry N: 1

B2: LDL-R CR2 domain, isolated (GST cleaved off) (domain or fragment)
chain: not shown
notes: also called CR2 monovalent domain; not shown: GST, N-terminal, cleaved
- Kd: 7.3 µM
- stoichiometry N: 1
